B1: GST-KSR1-M (amino acid residues 319–433) (domain or fragment)
chain: GSPQLVRRDIGLSVTHRFSTKSWLSQVCNVCQKSMIFGVKCKHCRLKCHNKCTKEAPACRITFLPLARLRRTESVPSDINNPVDRAAEPHFGTLPKALTKKEHPPAMNLDSSSNP
notes: Vector pGEX2T-TEV; also called M-fragment; pGEX2T-TEV-KSR1-M; source: E. coli, isolated with glutathione-Sepharose beads
B2: His-tagged full-length KSR1 (kinase suppressor of Ras1) (natural protein)
chain: MDRAALRAAAMGEKKEGGGGGAAADGGAGAAVSRALQQCGQLQKLIDISIGSLRGLRTKCSVSNDLTQQEIRTLEAKLVKYICKQQQSKLSVTPSDRTAELNSYPRFSDWLYIFNVRPEVVQEIPQELTLDALLEMDEAKAKEMLRRWGASTEECSRLQQALTCLRKVTGLGGEHKMDSGWSSTDARDSSLGPPMDMLSSLGRAGASTQGPRSISVSALPASDSPVPGLSEGLSDSCIPLHTSGRLTPRALHSFITPPTTPQLRRHAKLKPPRTPPPPSRKVFQLLPSFPTLTRSKSHESQLGNRIDDVTPMKFELPHGSPQLVRRDIGLSVTHRFSTKSWLSQVCNVCQKSMIFGVKCKHCRLKCHNKCTKEAPACRITFLPLARLRRTESVPSDINNPVDRAAEPHFGTLPKALTKKEHPPAMNLDSSSNPSSTTSSTPSSPAPFLTSSNPSSATTPPNPSPGQRDSRFSFPDISACSQAAPLSSTADSTRLDDQPKTDVLGVHEAEAEEPEAGKSEAEDDEEDEVDDLPSSRRPWRGPISRKASQTSVYLQEWDIPFEQVELGEPIGQGRWGRVHRGRWHGEVAIRLLEMDGHNQDHLKLFKKEVMNYRQTRHENVVLFMGACMNPPHLAIITSFCKGRTLHSFVRDPKTSLDINKTRQIAQEIIKGMGYLHAKGIVHKDLKSKNVFYDNGKVVITDFGLFGISGVVREERRENQLKLSHDWLCYLAPEIVREMIPGRDEDQLPFSKAADVYAFGTVWYELQARDWPFKHQPAEALIWQIGSGEGVRRVLASVSLGKEVGEILSACWAFDLQERPSFSLLMDMLERLPKLNRRLSHPGHFWKSADINSSKVMPRFERFGLGTLESGNPKM
notes: Kinase suppressor of Ras1 (KSR1), full length; Plasmid pTrace-His-KSR1 was a gift (Piero Crespo); the construct is not described further; also called His-KSR1; purified KSR1; source: 90% pure

Key:
pure calmodulin = target: T1, pure calmodulin (UniProt P0DP23 1-149); assay: pull-down; 2 μg pure calmodulin in lysis buffer B with 1 mM Ca^2+ with GST-KSR1 constructs on glutathione-Sepharose beads, 3 h at 4 °C; blot with anti-calmodulin; conditions: both partners purified
T1 construct: Pure calmodulin from Ocean Biologics; also called purified calmodulin; CaM; source: bought: Ocean Biologics

[1] = target: T2, calmodulin-Sepharose (calmodulin coupled to Sepharose beads) (UniProt P0DP23 1-149); assay: pull-down; 500 ng purified His-KSR1 with 30 μl calmodulin-Sepharose or GST-Sepharose, lysis buffer B (50 mM Tris-HCl pH 7.4, 150 mM NaCl, 1% Triton-X 100) with 1 mM CaCl2, 3 h at 4 °C; blot with anti-KSR1; conditions: both partners purified
T2 construct: Calmodulin coupled to Sepharose; also called CaM; source: bought: GE Healthcare (17-0529-01), calmodulin-Sepharose beads

Row | binding result (pure calmodulin) | binding result [1] | Binder
1 | binds |  | B1
2 |  | binds | B2

Source: article PMC8079274, “Calmodulin influences MAPK signaling by binding KSR1” (The Journal of Biological Chemistry, 2021)
